Reference: the nanobody polyreactivity screen of Harvey et al. (2022)

Assay: yeast display, Sf9 membrane polyspecificity reagent, FACS + sequencing; frameworks hold sequencing errors
Method in brief: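 After 36–48 hours of galactose induction, yeast (Saccharomyces cerevisiae BJ5465) displaying a synthetic nanobody library were stained at 4 °C for 1 hour with 10% biotinylated, detergent-solubilized Sf9 membrane reagent. Streptavidin microbeads enriched the stained cells before FACS sorting into low and high (top ~1%) gates on anti-HA and streptavidin fluorescence. Each clone's polyreactivity label reflects its gate of origin.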

Sequence	polyreactivity (PSR sort gate)
QVQLVESGGGLVQAGGSLRLSCAASGNIFVFYVMGWYRQAPGKERELVASISSTGNTYYADSVKGRFTISRENAMNTVYLQLNRLKPEDTAVYYCAADSHQNVSGWLRWPRMDYWGQGTQVTVSA	low polyreactivity
QVQLVESGGGLVQAGGSLRLSCAASGITFDGYAMGWYRQAPGKERELVAAISNTGDTTYYADSVKGRFTISRDNAKNTVYLQMNSLKPEDTAVYYCAGQRYYSYEYWGQGTQVTVSS	high polyreactivity
QVQLVESGGGLVQAGGSLRLSCASSGNIFDIYAMGWYRQAPGKERELVAAITSSGGSTYYADSVKGRCTISRDNAKNTVYLQMNSLKPEDTAVYYCNAVSLVQKGDYWGQGTQVTVSS	high polyreactivity
QVQLEESGGGLVQAGGSLRLSCAASGSIFVRNAMGWYRQAPGKERELVAAISRSGSSTYYADSVKGRFTISRDNAKNTVYLQMNSLKPEDTAVYYCAKRRPALRWIYYYWGQGTQVTVSS	high polyreactivity
QVQLEESGGGLVQAGGILRLSCAASGSIFIPNAMGWYRQAPGKERELVAAIRSGGSTYYADSVKGRFTISRDNAKNTVYLQMNSLKPEDTAVYYCAADTYTYYYYLARYYYWGQGTQVTVSS	low polyreactivity
QVQLVESGGGLVQAGGSLRLSCAASGRIFLRTAMGWYRLAPAKERELVASIDSSGGSAYYADSVQGRFTISRDNAKNTVYLQMNSLKPEDTAVFYCNADAYGTPEFTSYAVRYDYGGQGTQVTVSS	low polyreactivity
QVQLVESGGGLVQAGGSLRLICAASGRTFFRYGMGWYRQAPGKEREFVAAITRSGTTTYYADSVKGRFTISRDNAKNTVYLQMNSLKPEDTAVYYCDAQRAAPVDGKSDYWGQGTQVTLSS	low polyreactivity
QVQLVESGGGLVQAGGSLRLSCAASGSIFVPYAMGWYRQAPGKERELVAAISYSGGTTYADSVKGRFTISRDNAKNTVYLQMNRVKPEDTAVYYCAARYWRRWRQSVSLDYWGQGSQVTVSS	high polyreactivity
QVQLVESGGGLVQAGGSLRLSCAASGRIFPYYAMGWYRQAPGKERELVAAITRGGSRTYYADSVKGRFTISRDNAKNTVYLQMNSLKPEDTAVSYCARLDGFSASDHDYGGQGTQVTVSS	high polyreactivity
QVHLVESGGGLVLAGGSLRLSCAASGSTFIWNAMGWYRQAPGKERELVAAIRRGSSTNYADSVKGRFTISRDNAKNTVYLQMNSLYPEDTAVYYCAKKPVTTDVSSETFFLEMDYWGQGTQVTVSS	low polyreactivity
HVQLVESGGGLVQAGGSLRVSCAASGRIFYYCARGWYGQAPGKEWELVAAITWSGGSTYYADSLMGRFTISRDNANNTVYVHKNSLKPEDPAVAYCTKSAAITGNGQMDYWGQCTQVTVSS	low polyreactivity
QVQLVESGGGLVQAGGSLRLSCAASGSSFYTNAMGWYTQAPGKERELVAAISSSGDSTYYADSVKGRFTISRDNANNTVYLQMNSLKPEDTGVYYCNADRRSYNGFRYYYWGQGTQVTVSS	low polyreactivity
QVQLVESGGGLVQAGGSLRLSCAASASTFTINAMGWYRQAPGKERELVAAISRSGGSTFYADSVKGRFTISRDNAKKTVYLQMNSLKPEDTAVYYCAARGVNRQGFNYWGQGTQVTVSS	high polyreactivity
QVKLLDSGGGLVQAGGSLRLSCAASGRNFYYYAMGWYRQAPGNERELVAAISSCGSTYADSVKGRFTISRDNAKTTVYLQMNSLKPEDTAVYYCAAYLSRLGPSGYYYWGQGTQVTVSS	high polyreactivity
QVQLVESGGGLVQAGGSLRLSCDASGNTFLYNTMGWYRQAPGKEREFVAAISGSGGSTYYADSVKGRFTISRDNAKYTVYLQMNSLKPEDTAVYYCNALWRRRKYDYWGEGTQVTVSS	high polyreactivity
QVQLVESGGGLVQAGGSLRLSCAAFGRIFQYYAMGWYRQAPGKERELVAAITRSGGSTYYADSVKGRFTISRDNAKNTVYLQMNSLKPEDTAVYYCAAYSRYTVREGYDYWGQGTQVTVSS	high polyreactivity
QVQLVESGGGLVQAGGSLRLSCAASGLTFNAYAMGWYRQAPGKERELVADITTSDGSTFYADSVKGRFTISRDNAKNTVYLQMNSLKPEDTAVYYCNADAYGWYSGPWFKWLLWYDYWGQGTQVTVSS	low polyreactivity
QVQLVESGGGLVQAGGSLRLSCAASGFTFWLYAMGWYRQAPGKERELVATISWSGGSTYYADSVKGRFTISRDNAKNTVYLQMNSLKPEDTAVYYCAARLNYGNKYDYWGQGTQVTVSS	high polyreactivity
QFQLVDSGGGLVQAGGSLRLSCAPSGRIFQIYAMGWYRQAPGKERELVAAISGSTSYADSVKGRFTISRDNAKNTVYLQMISLKPEDTAVYYCAARALLPYGEYWGQGSQVTVSS	low polyreactivity
QVQLVDSGGGLVQAGGSLRLSCAASGITFYVNAMGWYRQAPRKERELVASISTGGSTNYADSVKGRFTISRDNAKNTVYLQMNSLKPEDTAVYYCAARVDYHPSLRDYWGQGTQVTVSS	low polyreactivity
QVQLVESGGGLVQAGGSLRLSCAASGFTFDYYTMGWYRQAPGKERELVAAITSSAGSTDYADSVKGRFTISRDYAKNTVYLQMNSLKPEDTAVYYCNADFLYGTYDYWGQGTQVTVSS	low polyreactivity
QVQLVESGGGLVQAGGSLRLSCAASGFTFRWYTMVWYRQAPGKERELVAAITGSGCTTYYADSVKGRFTISRDNAKNTVYLQMNSLKPEDTAVYYCAARTATSSPSWYEYWGQGTQVTVSS	high polyreactivity

Sequence	polyreactivity (PSR sort gate)
QVQLVESGGGLVQAGGSLRLSCAASGSIFTYYAMGWYRQAPGKEREFVAAISRRGGSTYYADSVKGRFTISRDNAKNTVYLQMNSLKPEDTAVYFCAADRWTRTLVKVIGRYYYCGQGTQVTVSS	high polyreactivity
QVQLVESGGGLVQAGGSLRLSCAASGFTFRRYAMGWYRQAPGQDRELVAAISYRGGTYYADSVKGRFTISRDNAKNTVYLQMNSLKPEDTAVYYCNARYRGKYSSYGYWGQGTQVTVSS	high polyreactivity
QVQLVESGGGLVQAGGSLRLICAASGITLDGNAMGWYRQAPGKERELVAAITSGGGTNYADSVKGRFTISRDNAKNTVYLQMNSLKPEDTAVYYCAAEGYVGYYDYDYWGQGTQVTVSS	low polyreactivity
QVQLVESGGGLVQAGGSLRLSCAASGLTFSQNAMGWYRQAPGKERELVAAITRSGSTTHYADSVKGRFTISRDNAKNTVYLQMNSLKPEDTAVYYCAAVAFLTRYYYWGQGTQVTVSS	high polyreactivity
QVQLVESGGGLVQAGGSLRLSCAASGRTFKAYAMGWYRQAPGKERELVAGISWSGGNTYYADSVKGRFTISRDNAKNTVYLQMNSLKPEDTAVYYCAASLGGLWEDDYWGQGTQVTVSS	high polyreactivity
QVLLQERGGGLVQAGGSLRLSCAASGTISTDIRMGWYRLAPGKEREFVASIDGCSTTYYAYSVKGRFTISRDNAKNTVYLQMNSLKPEDTAMYYCAAREATEFYLYYWGQGTQVTVSS	low polyreactivity
QVQLVESGGGLVQAGGSLRLSCAASGRTFTYYAMGWSRQAPGKERELVAGISSGGGSTYYADSVKGRFTISRDNAKNSVYFQMNILNPEDTAVYYCATAKRQGCYSEYDYWGQGTQVTVSS	high polyreactivity
QVQLQESGGGLVQAGGSLRLSCAASGSIFADVQMGWYRQAPGKELELVASINFRGTTTYYADSVKGRFTISRDNAKNTVYLQMSSLKPEDNAVYYCAVGRSEGGDFAYWGQGTHVTVSS	low polyreactivity
QVQLVESGGGLVQAGGSLRLSCAASGRTFPYNAMGWYRQAPGKERELVAAISSGGTTNYADSVKGRFTISRDNAKNTVYLQMNSLKPEDTAVYYCAADSVDSSQFRRDYWGQGTQVTVSS	low polyreactivity
QVQLVESGGGLVQAGGSLRLSSAASGRIIDDNTMGWYRQAPGKERELVAAISVSGGRTYYADSVKGRFTISRDNAKNTVYLQMNSLNPEDTAVYFCAAARGGEYWGQGTQVTVSS	high polyreactivity
QVQLVESGGGLVQAGGSLRLSCAASGRIFGYAMGWCRQAPRKERELVAAITSSGGRTYYADSVKGRFTISRDNAKNTVYLQMNSLKPEDTAVYYCAKKWPVYRSYDYWGQGTQVTVSS	high polyreactivity
QVQLVESGGGLVQAGGSLRLSCAASGSTFGVYAMGWYRQAPGKERELVAAIRWSSGSTYYADSVKGRFTISRDNAKNTVYLQMNSLKPEDTAVYYCAKTRGIYNIRFGYWGQGTQVTVSS	high polyreactivity
QVQLVDSVGGLVQAGGSLRLSCAASGRTFSNYAMGWYRQAPGKERQLVAAISGTGDNTYYADSVKGRFTISRDNAKNTVYLQMNSLKPEDTAVYYCKTVYYGWPRRYGYWGQGTQVTVSS	high polyreactivity
QVQLVESGGVLVQAGGSLRLSCAASGRIFLRNVMGWYRQAPGKERELVAAISSSGGRTYYADSVKGRFTISRDNAKNSVYLQMNSLKPEDTAVYYCANLSSSRLPSEMEYWGQGTQVTVSS	high polyreactivity
QVQLVESGGGLVQAGGSLSLSSAASGSIFVGNAIAWYRQAPGKERELVATISWSCGSTYYADSVKGRFTISRDYAKNNVYLQMNSRKPEDTAVYYCAAEFGGYDPYDYWGQGTQVTVSS	low polyreactivity
QVQLVESGGGLVQAGGSLRLSCAASGNTFNVYAMGWYRQAPGKERELVAAITLSGGSTYYADSVKGRFTISRDNAKNTVYLQMNSLKPEDTAVYYCNAEEVGTDYDYWGQGTQVTVSS	low polyreactivity
QVQLVETGGGLVQAGGSLRLSCAASGIIFSKYAMGRYRQAPGKERELVAAITRSGGSTYYADSVKGRFTISRDNAKNTVYLQMNSLKPEDTAVYYCAKRSGTPTNRQRYGYWGQGTQVTVSS	high polyreactivity
QVQLVESGGGLVQAGGSLRLICASSGRIFSPYVMGWYRQAPGKERELVARISWTGSSTYYADSVKGRFTISRDNAKNTVYLQMNSLKPEDTAVYYCAKRLTRFYTRLEYWGLGTQVTVSS	low polyreactivity
QVQLVESGGGLVQAGGSLRLSCAASGFNFYSYAMGWYKQAPGKERELVAVTYADSVKGRFTISRDNAQNTVYLQMNSLKPEDTAVYYCAALEYLDGPLSDYWGQGTQVTVSS	low polyreactivity
QVQLVESGGGLVQAGGSLRLSCAASGRTFDRNTMGWYRQAPGKERELVAAISSSGGSTYYADSVKGRFTISRDNAKNTVYLQMNSLKPEDTAVYYCAVLSRQYFRYGYDYWGQGTQVTVSS	high polyreactivity
QVQLVESGGGLVQAGGSLRLSCADSGRIFDVNDKRSYRQAPGKERELVAAITYSGTDTYYADSVKGRFTISRDNAKNTVYLQMNSLKPEDTAVYYCAAEFTGWEYIGRDYWGQGTQVTVSS	low polyreactivity
